# According to IntAct's records for PubMed 19037316:
# B1: Gibberellin receptor GID1 (Oryza sativa subsp. japonica (Rice)), Q6L545 (parent)
# chain: MAGSDEVNRNECKTVVPLHTWVLISNFKLSYNILRRADGTFERDLGEYLDRRVPANARPLEGVSSFDHIIDQSVGLEVRIYRAAAEGDAEEGAAAVTRPILEFLTDAPAAEPFPVIIFFHGGSFVHSSASSTIYDSLCRRFVKLSKGVVVSVNYRRAPEHRYPCAYDDGWTALKWVMSQPFMRSGGDAQARVFLSGDSSGGNIAHHVAVRAADEGVKVCGNILLNAMFGGTERTESERRLDGKYFVTLQDRDWYWKAYLPEDADRDHPACNPFGPNGRRLGGLPFAKSLIIVSGLDLTCDRQLAYADALREDGHHVKVVQCENATVGFYLLPNTVHYHEVMEEISDFLNANLYY
# partner: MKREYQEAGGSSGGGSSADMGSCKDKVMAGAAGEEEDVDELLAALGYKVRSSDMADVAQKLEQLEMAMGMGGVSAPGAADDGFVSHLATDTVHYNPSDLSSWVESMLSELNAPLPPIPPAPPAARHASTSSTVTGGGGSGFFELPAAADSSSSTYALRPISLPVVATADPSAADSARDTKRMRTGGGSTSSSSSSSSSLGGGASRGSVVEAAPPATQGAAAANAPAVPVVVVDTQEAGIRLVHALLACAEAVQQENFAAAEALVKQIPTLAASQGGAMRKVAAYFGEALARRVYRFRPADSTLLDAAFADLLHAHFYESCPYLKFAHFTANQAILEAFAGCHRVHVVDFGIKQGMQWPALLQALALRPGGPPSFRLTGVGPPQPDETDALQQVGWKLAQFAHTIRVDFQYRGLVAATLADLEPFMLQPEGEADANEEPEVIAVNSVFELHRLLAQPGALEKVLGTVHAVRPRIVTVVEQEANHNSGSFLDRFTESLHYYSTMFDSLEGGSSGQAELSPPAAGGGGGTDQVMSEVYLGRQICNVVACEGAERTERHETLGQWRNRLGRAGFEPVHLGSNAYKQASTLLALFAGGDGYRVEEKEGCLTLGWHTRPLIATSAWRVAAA
# Variants of: B1
# Settings: with slr1_orysj SLR1, Q7G7J6
row,effect of a mutation on the interaction,Variant
1,disrupting interaction,L18A;W21A;L29A;I33A;L45A;Y48A
